Changes are numbered by the printed parent chain. Numbers in names are those of the source.
B1: Nanobody or Nanobody construct of SEQ ID NO: 43 (VHH)
chain: DVQLVESGGGLVQPGGSLRLSCAASGFILDYYAIGWFRQAPGKEREGVLCIDASDDITYYADSVKGRFTISRDNSKNTVYLQMNSLRPEDTAVYYCATPIGLSSSCLLEYDYDYWGQGTLVTVSSGGGGSGGGSEVQLLESGGGLVQPGGSLRLSCAASGFTFRSFGMSWVRQAPGKGPEWVSSISGSGSDTLYADSVKGRFTISRDNSKNTLYLQMNSLRPEDTAVYYCTIGGSLSRSSQGTLVTVSSA
B2: Nanobody or Nanobody construct of SEQ ID NO: 48 (VHH)
VHH: EVQLVESGGGLVQPGGSLRLSCIASGLPFSTKSMGWFRQAPGKEREFVARISPGGTSRYYGDFVKGRFAISRDNAKNTTWLQMNSLKAEDTAVYYCASGERSTYIGSNYYRTNEYDYWGTGTQVTVSS
B3: Nanobody or Nanobody construct of SEQ ID NO: 45 (VHH)
VHH: EVQLVESGGGLVQAGGSLRLSCAASRSIGRLDRMGWYRHRTGEPRELVATITGGSSINYGDFVKGRFTISIDNAKNTVYLQMNNLKPEDTAVYYCNFNKYVTSRDTWGQGTQVTVSS
B4: Nanobody or Nanobody construct of SEQ ID NO: 65 (VHH)
VHH: B3 VHH with T41P, F62S, A74S, N84S, K86R, Q112L
B5: Nanobody or Nanobody construct of SEQ ID NO: 87 (VHH)
VHH: B3 VHH with L11S, A14P, T41P, F62S, A74S, N84S, K86R, Q112L, S116G, S117G
B6: Nanobody or Nanobody construct of SEQ ID NO: 68 (VHH)
VHH: B3 VHH with T41P, F62S, A74S, N84S, K86R
B7: Nanobody or Nanobody construct of SEQ ID NO: 70 (VHH)
VHH: B3 VHH with A14P, T41P, F62S, A74S, N84S, K86R, Q112L, T114Q
B8: Nanobody or Nanobody construct of SEQ ID NO: 82 (VHH)
VHH: B3 VHH with A14P, T41P, F62S, A74S, N84S, K86R, P87A, Q112L
B9: Nanobody or Nanobody construct of SEQ ID NO: 78 (VHH)
VHH: B3 VHH with Q13R, A14P, T41P, F62S, A74S, N84S, K86R, Q112L
B10: Nanobody or Nanobody construct of SEQ ID NO: 67 (VHH)
VHH: B3 VHH with A14P, T41P, F62S, A74S, N84S, Q112L
B11: Nanobody or Nanobody construct of SEQ ID NO: 89 (VHH)
VHH: B3 VHH with L11S, T41P, F62S, A74S, N84S, K86R, Q112L, T114Q, S116G, S117G
B12: Nanobody or Nanobody construct of SEQ ID NO: 71 (VHH)
VHH: B3 VHH with A14P, T41P, F62S, A74S, N84S, K86R, Q112L, S117G
B13: Nanobody or Nanobody construct of SEQ ID NO: 80 (VHH)
VHH: B3 VHH with A14P, T41P, F62S, A74S, N84S, K86R, Q112L, T114Q, S116G, S117G
B14: Nanobody or Nanobody construct of SEQ ID NO: 81 (VHH)
VHH: B3 VHH with L11V, A14P, T41P, F62S, A74S, N84S, K86R, Q112L
B15: Nanobody or Nanobody construct of SEQ ID NO: 84 (VHH)
VHH: B3 VHH with A14P, T41P, F62S, A74S, N84S, K86R, Q112L, S116G
B16: Nanobody or Nanobody construct of SEQ ID NO: 69 (VHH)
VHH: B3 VHH with A14P, T41P, F62S, A74S, N84S, K86R
B17: Nanobody or Nanobody construct of SEQ ID NO: 83 (VHH)
VHH: B3 VHH with A14P, T41P, F62S, A74S, N84S, K86R, T90A, Q112L
B18: Nanobody or Nanobody construct of SEQ ID NO: 66 (VHH)
VHH: B3 VHH with L11S, A14P, T41P, F62S, A74S, N84S, K86R, Q112L
B19: Nanobody or Nanobody construct of SEQ ID NO: 47 (VHH)
VHH: EVQLVESGGGLVQPGGSLRLSCAASGSVFKINVMAWYRQAPGKGRELVAGIISGGSTSYADSVKGRFTISRDNAKNTLYLQMNSLRPEDTAVYYCAFITTESDYDLGRRYWGQGTLVTVSS
B20: Nanobody or Nanobody construct of SEQ ID NO: 85 (VHH)
VHH: EVQLVESGGGSVQPGGSLRLSCAASRSIGRLDRMGWYRHRPGEPRELVATITGGSSINYGDSVKGRFTISIDNSKNTVYLQMNSLRPEDTAVYYCNFNKYVTSRDTWGQGTLVQVGG
B21: Nanobody or Nanobody construct of SEQ ID NO: 49 (VHH)
VHH: EVQLLESGGGLVQPGGSLRLSCAASGLPFSTKSMGWFRQAPGKGREFVSRISPGGTSRYYGDFVKGRFTISRDNSKNTLYLQMNSLRAEDTAVYYCASGERSTYIGSNYYRTNEYDYWGQGTLVTVSS
B22: Example 1C: (A14P,R39Q,K83R,T91Y,Q108L) (VHH)
VHH: EVQLVESGGGLVQPGGSLRLSCAASGRTFNNYAMGWFRQAPGKEREFVAAITRSGVRSGVSAIYGDSVKDRFTISRDNAKNTLYLQMNSLRPEDTAVYYCAASAIGSGALRRFEYDYSGQGTLVTVSS
B23: Example 1C: (A14P,K83R,Q108L) (VHH)
VHH: B22 VHH with Q39R, Y99T
B24: Nanobody or Nanobody construct of SEQ ID NO: 42 (VHH)
chain: EVQLVESGGGLVQPGGSLRLSCAASGRTFSYNPMGWFRQAPGKGRELVAAISRTGGSTYYPDSVEGRFTISRDNAKRMVYLQMNSLRAEDTAVYYCAAAGVRAEDGRVRTLPSEYTFWGQGTQVTVSSAAAEVQLVESGGGLVQPGGSLRLSCAASGRTFSYNPMGWFRQAPGKGRELVAAISRTGGSTYYPDSVEGRFTISRDNAKRMVYLQMNSLRAEDTAVYYCAAAGVRAEDGRVRTLPSEYTFWGQGTQVTVSSA
B25: Nanobody or Nanobody construct of SEQ ID NO: 38 (VHH)
chain: EVQLVESGGGLVQPGGSLRLSCAASGFTFSSYAMSWVRQAPGKGLEWVSGIKSSGDSTRYAGSVKGRFTISRDNAKNTLYLQMNSLRPEDTAVYYCAKSRVSRTGLYTYDNRGQGTLVTVSSGGGGSGGGGSGGGGSGGGGSEVQLVESGGGLVQPGGSLRLSCAASGRTFNNYAMGWFRQAPGKEREFVAAITRSGVRSGVSAIYGDSVKDRFTISRDNAKNTLYLQMNSLRPEDTAVYYCAASAIGSGALRRFEYDYSGQGTLVTVSSA

What follows are binders tested against monoclonal antibody 21-4-3 (assay: SPR, 21-4-3 captured via anti-mouse IgG, 500 nM).
Sequence of monoclonal antibody 21-4-3 (VH, as listed by the source, chain 1 of 2): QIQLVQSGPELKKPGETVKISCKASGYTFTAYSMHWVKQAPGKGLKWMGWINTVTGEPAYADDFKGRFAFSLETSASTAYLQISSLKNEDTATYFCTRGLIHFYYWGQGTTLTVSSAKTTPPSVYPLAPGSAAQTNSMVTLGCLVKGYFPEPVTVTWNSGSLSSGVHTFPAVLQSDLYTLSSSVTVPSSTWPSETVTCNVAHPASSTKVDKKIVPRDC
Sequence of monoclonal antibody 21-4-3 (VL, as listed by the source, chain 2 of 2): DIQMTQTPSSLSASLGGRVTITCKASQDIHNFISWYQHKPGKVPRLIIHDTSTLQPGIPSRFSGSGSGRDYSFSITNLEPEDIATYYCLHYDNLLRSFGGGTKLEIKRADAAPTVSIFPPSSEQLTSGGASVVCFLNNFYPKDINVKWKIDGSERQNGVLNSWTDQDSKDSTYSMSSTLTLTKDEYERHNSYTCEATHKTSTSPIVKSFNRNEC

Binder	binding as % of Reference Sequence (=100%) [%]
B1	3
B2	3
B3	22
B4	23
B5	41
B6	26
B7	106
B8	56
B9	1
B10	101
B11	2
B12	44
B13	51
B14	75
B15	91
B16	106
B17	79
B18	48
B19	4
B20	32
B21	4

What follows are binders tested against antibodies against ISV in serum sample IHUS#B09032311A3 (assay: ECL bridging assay, drug displacement; competitor of labelled ISV SEQ ID NO:1).

Binder	% reduction [%]	ECLU confirmatory assay [ECLU]
B22	90	228
B23	93	156

The binders below were run against serum sample IHUS#B09032311A1 in the same assay as above.

Binder	% reduction [%]	ECLU confirmatory assay [ECLU]
B22	6	58
B23	8	57

These binders were tested against antibodies against ISV in serum sample IHUS#B09032311A20 in the same assay as above.

Binder	% reduction [%]	ECLU confirmatory assay [ECLU]
B22	97	570
B23	97	628

Each binder was assayed against purified interference factor(s) from serum of Donor B (assay: SPR, interference factor on CM5 chip).

Binder	binding as % of Reference Sequence (=100%) [%]
B1	20
B4	121
B5	5
B6	115
B7	105
B8	80
B9	96
B10	117
B11	5
B12	105
B13	5
B14	50
B15	50
B16	120
B17	73
B18	29
B24	4
B25	25
B20	5

These binders were tested against purified interference factor(s) from serum of Donor C (assay: SPR, interference factor on CM5 chip).

Binder	binding as % of Reference Sequence (=100%) [%]
B4	64
B5	39
B6	49
B7	98
B8	100
B9	100
B10	96
B11	17
B12	87
B13	58
B14	89
B15	83
B16	84
B17	61
B18	84
B25	7
B20	42

What follows are binders tested against purified interference factor(s) from serum of Donor A (assay: SPR, interference factor on CM5 chip).

Binder	binding as % of Reference Sequence (=100%) [%]
B1	3
B2	0
B3	0
B4	73
B5	51
B6	38
B7	90
B8	96
B9	96
B10	102
B11	14
B12	88
B13	65
B14	94
B15	84
B16	80
B17	56
B18	81
B19	1
B24	1
B25	9
B20	46
B21	0

Each binder was assayed against affinity purified antibody IHuP#002-001-ABL-08 (assay: ECL bridging/competition assay, 10 ug/ml ISV with 400 ng/ml analytical antibody; competitor of labelled ISV).

Binder	% reduction [%]	ECLU confirmatory assay [ECLU]
B22	91.4	251
B23	89.1	319
